Test results: patent US7235648B1, “Yeast cells engineered to produce pheromone system protein surrogates, and uses therefor” (Cadus Technologies, Inc., priority 1993, dated 2007)
Ends that are not written are not given here.

Legend:
Type in all cases: cell-based
STE3 = biological target: T1, STE3 (Saccharomyces cerevisiae, UniProt P06783); assay: Autocrine yeast (CY599/CY2012, ste2-STE3) growth on histidine-deficient medium plus aminotriazole, fus1-HIS3 readout; conditions: for ability of the peptide-encoding plasmid to confer the His phenotype on CY2012 (a-factor analogues): -His medium with 0.2 mM 3-aminotriazole, random a-factor library
T1 construct: fragment containing the entire coding region of STE3 flanked by the two newly introduced Spe I sites; expressed in transfected cells; host or cells: S. cerevisiae CY599 / CY2012 (ste2-STE3, chromosomal replacement with Cadus 1147)
T1 sequence (P06783 1-470): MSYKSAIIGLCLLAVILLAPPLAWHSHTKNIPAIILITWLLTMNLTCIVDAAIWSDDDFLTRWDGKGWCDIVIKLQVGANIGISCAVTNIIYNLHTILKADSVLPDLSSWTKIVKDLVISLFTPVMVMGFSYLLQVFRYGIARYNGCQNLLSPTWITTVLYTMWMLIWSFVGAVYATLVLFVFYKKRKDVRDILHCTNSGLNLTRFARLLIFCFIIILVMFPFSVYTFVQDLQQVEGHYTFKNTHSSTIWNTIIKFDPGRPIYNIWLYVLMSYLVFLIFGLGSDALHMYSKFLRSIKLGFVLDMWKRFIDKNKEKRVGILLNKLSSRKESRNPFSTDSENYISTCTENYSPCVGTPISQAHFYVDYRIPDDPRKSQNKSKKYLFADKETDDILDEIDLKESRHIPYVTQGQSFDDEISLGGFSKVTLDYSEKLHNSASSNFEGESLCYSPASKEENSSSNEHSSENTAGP
Text: A MATa strain designed for the expression of peptides in the context of MFA1 (i.e., using the MFA1 expression vector, Cadus 1239) has been constructed. The genotype of this strain, designated CY599, is […] mfa1 mfa2 far1-1 his3::fus1-HIS3 ste2-STE3 ura3 met1 ade1 leu2. In this strain, Cadus 1147 (see above) was used to replace STE2 with a hybrid gene in which the STE3 coding region is under the control of expression elements which normally drive the expression of STE2. As a result, the a-factor receptor replaces the α-factor receptor. The genes which encode a-factor are deleted from this strain: the far1 mutation abrogates the arrest of growth which normally follows stimulation of the pheromone response pathway; and the FUS1-HIS3 hybrid gene (integrated at the HIS3 locus) provides a selectable signal of activation of the pheromone response pathway. CY599 cells were expected to be capable of the transport of a-factor or a-factor-like peptides encoded by oligonucleotides expressed from Cadus 1239 by virtue of expression of the endogenous yeast transporter, Ste6.
Experiments were performed to test: 1. the ability of Cadus 1239 to function as a vector for the expression of peptides encoded by synthetic oligonucleotides; 2. the suitability of the oligonucleotides, as designed, to direct the export of farnesylated, carboxymethylated peptides through the pathway normally used by a-factor; 3. the capacity of CY599 to export these peptides; and 4. the ability of CY599 to respond to those peptides that stimulate the pheromone response pathway by growing on selective media. These tests were performed using an oligonucleotide which encodes the 12 amino acid a-factor; specifically, the degenerate sequence (NNN)n in the oligo-nucleotide cloned into Cadus 1239 (see above) (with n=12) encodes the peptide component of a-factor pheromone. CY599 was transformed with the resulting plasmid (Cadus 1220), and transformants selected on uracil-deficient medium were transferred to histidine-deficient medium supplemented with a range of concentrations of aminotriazole. […] Cadus 1220 and the designed oligonucleotide are competent to direct the expression and export of a farnesylated, carboxy-methylated peptide encoded by the (NNN)n sequence of the synthetic oligonucleotide; and 2. CY599 can, in an autocrine fashion, respond to a farnesylated, carboxy-methylated peptide that stimulates its pheromone response pathway, in this case signaling initiates as a-factor binds to STE3.
An optimized version of strain 6 (Example 2 above) was derived. This yeast strain, CY2012 (MATa ste2-STE3 far1Δ1442 mfa1::LEU2 mfa2-lacZ fus1-HIS3 tht1-1 ura3 leu2 his3 trp1 ste2), was constructed as follows. […]

STE2 receptor = biological target: T2, STE2 receptor (Saccharomyces cerevisiae, UniProt D6VTK4); assay: Autocrine MATa yeast (CY588/CY1455) growth on histidine-deficient medium plus aminotriazole, fus1-HIS3 readout; conditions: -His medium with 1.0 mM or 2.5 mM aminotriazole
T2 construct: endogenous in cells; host or cells: S. cerevisiae MATa CY588 / CY1455
T2 sequence (D6VTK4 1-431): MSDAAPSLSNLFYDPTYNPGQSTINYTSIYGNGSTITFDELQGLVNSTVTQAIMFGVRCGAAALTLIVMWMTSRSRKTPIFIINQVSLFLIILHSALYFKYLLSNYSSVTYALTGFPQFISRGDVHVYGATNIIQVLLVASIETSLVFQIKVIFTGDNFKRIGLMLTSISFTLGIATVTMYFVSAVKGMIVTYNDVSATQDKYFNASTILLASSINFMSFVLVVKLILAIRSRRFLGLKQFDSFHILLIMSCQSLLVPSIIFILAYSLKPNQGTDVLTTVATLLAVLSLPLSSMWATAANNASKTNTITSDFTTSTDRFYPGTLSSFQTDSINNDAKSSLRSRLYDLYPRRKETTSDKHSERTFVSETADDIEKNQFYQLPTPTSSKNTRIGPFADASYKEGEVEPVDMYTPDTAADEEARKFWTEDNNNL

WKK6 cells = assay: Valinomycin filter disk assay on lawns of ste6 yeast (WKK6) expressing human Mdr1 constructs; conditions: 5 mM valinomycin in DMSO on filter disk
Procedure: CADUS plasmids 1065, 1079 and 1097 as well as a URA3 control plasmid (pRS426=1019) were transformed into a ura3^−, ste6^− strain of yeast (WKK6=CY20=MATa ura3-1 leu2-3.112 his3-11.15 trp1-1 ade2-1 can1-100 ste6::HIS3, obtained from Karl Kuchler). Individual transformants were grown overnight in SD-URA media and lawns containing approximately 5×10^6 cells were poured onto YPD plates in 3 ml of YPD top agar. Sterile filter disks were placed on the plates after the top agar had solidified, and […] of DMSO or 5 mM valinomycin in DMSO were spotted onto the filter disks.

[1] = biological target: T3, wild-type human Mdr1 protein (Homo sapiens, UniProt P08183); assay: Halo assay of a-factor transport by human Mdr1 in ste6 yeast on supersensitive MATα lawn; conditions: yeast deleted for STE6; halo size 1097>1079~1065>1019
T3 construct: expressed in transfected cells; host or cells: S. cerevisiae WKK6 (CY20, ste6::HIS3), plasmid Cadus 1097
T3 sequence (P08183 whole entry): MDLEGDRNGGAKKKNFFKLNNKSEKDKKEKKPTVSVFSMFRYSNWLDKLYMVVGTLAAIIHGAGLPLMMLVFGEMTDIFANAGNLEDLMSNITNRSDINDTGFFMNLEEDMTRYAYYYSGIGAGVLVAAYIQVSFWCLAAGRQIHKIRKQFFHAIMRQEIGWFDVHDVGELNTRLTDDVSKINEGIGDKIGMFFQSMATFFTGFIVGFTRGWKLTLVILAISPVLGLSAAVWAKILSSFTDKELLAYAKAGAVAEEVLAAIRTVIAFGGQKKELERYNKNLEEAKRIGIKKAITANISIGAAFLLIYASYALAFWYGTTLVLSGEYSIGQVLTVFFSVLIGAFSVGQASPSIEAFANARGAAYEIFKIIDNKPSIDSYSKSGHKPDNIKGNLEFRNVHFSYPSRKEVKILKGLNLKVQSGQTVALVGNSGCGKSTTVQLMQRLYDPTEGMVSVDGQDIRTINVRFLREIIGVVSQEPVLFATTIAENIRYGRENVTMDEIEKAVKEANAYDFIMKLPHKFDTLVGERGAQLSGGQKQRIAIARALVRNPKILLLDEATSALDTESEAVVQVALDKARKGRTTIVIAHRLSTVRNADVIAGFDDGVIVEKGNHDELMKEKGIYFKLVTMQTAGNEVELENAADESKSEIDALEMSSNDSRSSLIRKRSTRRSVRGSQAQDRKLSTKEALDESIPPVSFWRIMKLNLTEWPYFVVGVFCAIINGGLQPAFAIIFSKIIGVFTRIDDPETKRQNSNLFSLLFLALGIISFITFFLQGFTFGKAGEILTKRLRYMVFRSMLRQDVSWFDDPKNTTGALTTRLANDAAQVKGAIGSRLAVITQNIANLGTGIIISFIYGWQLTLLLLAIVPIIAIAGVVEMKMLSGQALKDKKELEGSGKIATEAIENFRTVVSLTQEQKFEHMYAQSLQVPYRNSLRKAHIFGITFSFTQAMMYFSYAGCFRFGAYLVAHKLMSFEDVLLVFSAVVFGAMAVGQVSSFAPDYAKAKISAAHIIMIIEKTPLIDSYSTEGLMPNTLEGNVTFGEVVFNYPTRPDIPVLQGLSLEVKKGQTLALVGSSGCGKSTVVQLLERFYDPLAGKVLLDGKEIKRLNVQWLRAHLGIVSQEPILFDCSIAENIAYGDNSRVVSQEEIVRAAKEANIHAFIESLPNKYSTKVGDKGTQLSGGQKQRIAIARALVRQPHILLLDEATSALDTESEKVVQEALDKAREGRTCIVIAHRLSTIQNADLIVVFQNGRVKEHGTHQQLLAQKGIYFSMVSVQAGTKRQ
Procedure: A “halo” assay was performed by patching WKK6 cells containing the various Mdr1 constructs (1019, 1065, 1079 & 1097) onto a lawn of Matα cells which are supersensitive to a-factor (CY32=MATα leu2-3.112 trp1-289 ura3-52 his3*1 sst2*2 GAL+).

Molecule | ability of the peptide-encoding plasmid to confer the His phenotype on CY2012 (a-factor analogues) (STE3) | agonist activity on the STE2 receptor, MFα-5.8 library (STE2 receptor) | also measured
YALFVHFFDIP [SEQ ID NO:53] | confer the His^− phenotype |  | 
FKGQVRFVVLA [SEQ ID NO:55] | confer the His^− phenotype |  | 
WHWMELRPGQPMY [SEQ ID NO:51] |  | acted as agonists | 
LMSPSFFFLPA [SEQ ID NO:57] | confer the His^− phenotype |  | 
WHWLELMPGQPLY [SEQ ID NO49] |  | acted as agonists | 
CC(C)[C@@H]1NC(=O)[C@H](C)OC(=O)[C@@H](C(C)C)NC(=O)[C@@H](C(C)C)OC(=O)[C@H](C(C)C)NC(=O)[C@H](C)OC(=O)[C@@H](C(C)C)NC(=O)[C@@H](C(C)C)OC(=O)[C@H](C(C)C)NC(=O)[C@H](C)OC(=O)[C@@H](C(C)C)NC(=O)[C@@H](C(C)C)OC1=O [valinomycin] |  |  | resistance to valinomycin conferred by mutant Mdr1 (G185V) (WKK6 cells; WKK6 cells with plasmid 1079): weak resistance; resistance to valinomycin conferred by wild type Mdr1 (WKK6 cells; WKK6 cells with plasmid 1097): complete resistance
Tyr Ile Ile Lys Gly Val Phe Trp Asp Pro Ala (YIIKGVFWDPA; not fully specified (C-terminus); printed as Tyr Ile Ile Lys Gly Val Phe Trp Asp Pro Ala; also: C-terminal cysteine carboxymethylated) [a-factor, yeast dodecapeptide mating pheromone with C-terminal farnesylated, carboxymethylated cysteine, reference compound] |  |  | transport by wild-type human Mdr1 protein [1]: can be transported; aminotriazole-resistant growth on histidine-deficient media (autocrine response, a-factor binds to STE3) (STE3; CY599 transformed with Cadus 1220, range of aminotriazole concentrations): enhanced aminotriazole-resistant growth
Trp His Trp Leu Gln Leu Thr Pro Gly Gln Pro Met Tyr (WHWLQLTPGQPMY) [SEQ ID NO:47] |  | acted as agonists | 
